Measured values as given in patent publication US20250263489A1 (TEIJIN PHARMA, published 2025).
Residue numbers refer to the chain shown, from its start. Where two headings read alike, the source gives them in different places. Blank lines part the entries; values can stand above or below the binder they belong to.

Tests used:
[1] = target: T1, IGF-1 receptor on the cells of the PathHunter IGF1R Functional Assay (DiscoverX) (UniProt P08069 31-1367); experiment: cell-based or functional assay
[2] = target: T1, IGF-1 receptor on the cells of the …; experiment: cell-based or functional assay; remark: listed apart in the source
[3] = target: T1, IGF-1 receptor on the cells of the …; experiment: cell-based or functional assay; remark: listed apart in the source
[4] = target: T1, IGF-1 receptor on the cells of the …; experiment: cell-based or functional assay; remark: listed apart in the source
[5] = target: T2, human IGF-1 receptor expressed on HEK293T cells (human, UniProt P08069 31-1367); experiment: cell-based ELISA on fixed HEK293T cells expressing the receptor, antibody at 5 nM
T2 construct: Cells fixed in formalin before the ELISA; also called human IGF-1 receptor-expressing cells
T2 sequence (P08069 31-1367 limits assumed): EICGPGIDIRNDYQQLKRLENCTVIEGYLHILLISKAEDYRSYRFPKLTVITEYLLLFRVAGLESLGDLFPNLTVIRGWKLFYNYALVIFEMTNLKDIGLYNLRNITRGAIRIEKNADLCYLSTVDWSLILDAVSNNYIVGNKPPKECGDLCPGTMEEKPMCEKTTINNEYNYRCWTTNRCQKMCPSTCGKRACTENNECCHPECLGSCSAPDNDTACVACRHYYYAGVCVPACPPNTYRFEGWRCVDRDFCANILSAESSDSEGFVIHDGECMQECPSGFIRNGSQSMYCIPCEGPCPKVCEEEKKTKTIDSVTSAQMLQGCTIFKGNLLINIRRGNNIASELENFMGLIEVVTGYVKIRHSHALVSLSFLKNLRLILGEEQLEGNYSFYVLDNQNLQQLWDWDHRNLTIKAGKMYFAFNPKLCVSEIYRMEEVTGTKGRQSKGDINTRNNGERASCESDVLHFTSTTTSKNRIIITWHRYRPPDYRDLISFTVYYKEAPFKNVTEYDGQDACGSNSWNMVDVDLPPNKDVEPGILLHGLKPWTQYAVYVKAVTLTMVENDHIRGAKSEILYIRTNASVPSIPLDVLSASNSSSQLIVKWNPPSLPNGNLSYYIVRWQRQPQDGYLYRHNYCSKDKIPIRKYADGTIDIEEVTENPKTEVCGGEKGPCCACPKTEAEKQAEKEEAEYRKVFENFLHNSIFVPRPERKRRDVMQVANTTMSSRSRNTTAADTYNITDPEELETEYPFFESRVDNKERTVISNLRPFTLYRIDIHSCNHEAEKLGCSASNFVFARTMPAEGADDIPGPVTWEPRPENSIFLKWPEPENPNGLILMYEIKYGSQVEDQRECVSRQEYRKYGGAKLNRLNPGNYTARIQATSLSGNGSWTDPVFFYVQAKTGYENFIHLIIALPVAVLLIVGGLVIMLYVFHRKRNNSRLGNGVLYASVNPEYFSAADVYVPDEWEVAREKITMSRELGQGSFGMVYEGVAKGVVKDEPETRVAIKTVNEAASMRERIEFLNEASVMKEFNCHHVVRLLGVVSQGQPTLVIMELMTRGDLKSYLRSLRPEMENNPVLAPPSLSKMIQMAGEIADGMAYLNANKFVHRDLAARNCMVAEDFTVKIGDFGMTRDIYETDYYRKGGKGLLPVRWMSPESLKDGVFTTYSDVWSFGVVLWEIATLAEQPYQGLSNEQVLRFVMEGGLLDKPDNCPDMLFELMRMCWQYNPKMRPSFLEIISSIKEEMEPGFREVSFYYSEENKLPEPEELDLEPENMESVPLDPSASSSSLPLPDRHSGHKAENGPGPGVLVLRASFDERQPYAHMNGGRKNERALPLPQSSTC

[6] = target: T3, guinea pig IGF-1 receptor expressed on HEK293T cells (guinea pig, UniProt P08069 31-1367 (human entry)); experiment: as above
T3 sequence (P08069 other isoform, or with tags, fused parts or gaps limits assumed): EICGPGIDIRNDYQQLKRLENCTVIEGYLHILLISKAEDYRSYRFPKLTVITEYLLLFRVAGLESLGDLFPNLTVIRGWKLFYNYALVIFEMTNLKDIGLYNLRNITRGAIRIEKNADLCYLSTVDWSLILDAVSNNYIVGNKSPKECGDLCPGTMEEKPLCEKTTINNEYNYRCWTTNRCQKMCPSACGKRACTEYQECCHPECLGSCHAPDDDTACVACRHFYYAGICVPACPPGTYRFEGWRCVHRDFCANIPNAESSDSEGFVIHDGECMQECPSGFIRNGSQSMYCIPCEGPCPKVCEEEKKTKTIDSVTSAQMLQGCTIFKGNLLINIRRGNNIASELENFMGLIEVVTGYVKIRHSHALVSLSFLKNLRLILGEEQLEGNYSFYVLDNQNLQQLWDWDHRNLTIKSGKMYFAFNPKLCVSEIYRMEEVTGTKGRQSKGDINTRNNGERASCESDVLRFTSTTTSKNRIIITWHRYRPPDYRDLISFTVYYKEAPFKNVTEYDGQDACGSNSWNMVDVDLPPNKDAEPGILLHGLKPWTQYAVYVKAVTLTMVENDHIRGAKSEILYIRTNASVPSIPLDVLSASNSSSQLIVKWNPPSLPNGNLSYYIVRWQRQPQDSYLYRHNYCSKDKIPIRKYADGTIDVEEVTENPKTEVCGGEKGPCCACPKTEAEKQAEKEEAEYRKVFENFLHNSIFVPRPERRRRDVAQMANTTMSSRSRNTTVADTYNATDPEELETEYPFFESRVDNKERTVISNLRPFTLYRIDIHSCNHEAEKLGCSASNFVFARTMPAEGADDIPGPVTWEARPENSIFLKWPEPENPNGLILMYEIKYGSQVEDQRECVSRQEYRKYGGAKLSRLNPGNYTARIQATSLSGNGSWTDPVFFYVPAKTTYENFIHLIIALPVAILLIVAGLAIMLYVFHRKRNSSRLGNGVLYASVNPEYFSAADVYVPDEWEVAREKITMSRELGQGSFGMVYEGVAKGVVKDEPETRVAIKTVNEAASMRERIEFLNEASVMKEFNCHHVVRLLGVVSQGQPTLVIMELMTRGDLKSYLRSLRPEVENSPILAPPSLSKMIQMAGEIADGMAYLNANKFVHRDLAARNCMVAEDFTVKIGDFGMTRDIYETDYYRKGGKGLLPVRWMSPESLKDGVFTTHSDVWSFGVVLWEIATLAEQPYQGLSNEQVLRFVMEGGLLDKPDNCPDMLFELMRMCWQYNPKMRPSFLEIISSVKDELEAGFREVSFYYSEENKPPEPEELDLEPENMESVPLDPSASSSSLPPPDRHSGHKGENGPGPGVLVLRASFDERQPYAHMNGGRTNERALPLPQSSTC

[7] = target: T4, rabbit IGF-1 receptor expressed on HEK293T cells (rabbit); experiment: as above
T4 sequence (chain, as listed by the source limits assumed): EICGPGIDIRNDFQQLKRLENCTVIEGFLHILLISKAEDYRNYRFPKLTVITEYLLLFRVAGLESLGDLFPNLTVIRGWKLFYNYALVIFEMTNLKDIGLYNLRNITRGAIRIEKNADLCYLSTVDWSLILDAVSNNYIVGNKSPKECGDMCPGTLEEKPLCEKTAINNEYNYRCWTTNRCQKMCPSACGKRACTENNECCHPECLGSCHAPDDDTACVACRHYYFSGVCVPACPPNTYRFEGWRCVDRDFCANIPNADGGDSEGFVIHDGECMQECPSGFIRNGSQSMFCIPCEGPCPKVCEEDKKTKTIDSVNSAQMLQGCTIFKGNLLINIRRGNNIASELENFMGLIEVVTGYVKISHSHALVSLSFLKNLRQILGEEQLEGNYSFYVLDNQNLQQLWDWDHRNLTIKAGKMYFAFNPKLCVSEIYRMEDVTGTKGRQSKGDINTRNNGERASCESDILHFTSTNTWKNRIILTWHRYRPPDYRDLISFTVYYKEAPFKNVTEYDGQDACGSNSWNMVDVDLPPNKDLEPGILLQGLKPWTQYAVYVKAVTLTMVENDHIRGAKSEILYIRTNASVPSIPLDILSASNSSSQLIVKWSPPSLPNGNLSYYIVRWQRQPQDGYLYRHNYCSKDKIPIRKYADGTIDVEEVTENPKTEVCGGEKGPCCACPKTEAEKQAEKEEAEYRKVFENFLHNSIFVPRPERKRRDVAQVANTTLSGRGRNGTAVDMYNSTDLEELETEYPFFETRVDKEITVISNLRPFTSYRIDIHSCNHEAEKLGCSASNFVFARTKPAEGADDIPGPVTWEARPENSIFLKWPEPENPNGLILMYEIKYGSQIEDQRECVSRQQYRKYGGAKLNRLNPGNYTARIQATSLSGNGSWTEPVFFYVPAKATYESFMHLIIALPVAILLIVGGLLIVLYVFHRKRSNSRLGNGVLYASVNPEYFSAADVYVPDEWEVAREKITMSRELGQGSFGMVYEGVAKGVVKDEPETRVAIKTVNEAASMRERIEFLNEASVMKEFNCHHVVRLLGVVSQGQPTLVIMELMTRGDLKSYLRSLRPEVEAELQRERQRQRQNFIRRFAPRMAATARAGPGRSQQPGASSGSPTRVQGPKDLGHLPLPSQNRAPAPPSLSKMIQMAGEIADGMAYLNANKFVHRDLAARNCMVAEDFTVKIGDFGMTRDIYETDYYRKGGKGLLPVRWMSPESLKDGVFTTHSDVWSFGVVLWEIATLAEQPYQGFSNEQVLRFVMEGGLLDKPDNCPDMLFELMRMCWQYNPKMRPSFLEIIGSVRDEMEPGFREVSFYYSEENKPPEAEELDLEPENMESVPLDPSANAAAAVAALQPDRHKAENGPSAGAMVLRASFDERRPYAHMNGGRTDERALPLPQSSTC

[8] = target: crab-eating macaque IGF-1 receptor expressed on HEK293T cells (crab-eating macaque); experiment: as above
Sequence of crab-eating macaque IGF-1 receptor expressed on HEK293T cells (crab-eating macaque) (chain, as listed by the source limits assumed): as the sequence (P08069 31-1367 limits assumed) above, with T188A, S471W, A729V, P738L, E1238D counted along it

[9] = target: mouse IGF-1 receptor expressed on HEK293T cells (mouse, UniProt Q60751 31-1373); experiment: cell-based ELISA on fixed HEK293T cells expressing the receptor, compared with Mock cells
Method: (§1) HEK293T cells were transfected by lipofection method with pEF1 expression vectors (Thermo Fisher) incorporated with the IGF-1 receptor genes of rabbit (SEQ ID NO: 76), guinea pig (SEQ ID NO: 78), rat (SEQ ID NO: 80) and mouse SEQ ID NO: 82). The transfected HEK293T cells were allowed to grow overnight or longer after the lipofection, and were then added to a 96-well plate (poly-D-lysine coated) at 4×10⁴ cells/well. The cells were then fixed in 10% buffered formalin (Mildform® 10NM, Wako) and blocked with phosphate buffer containing 3% BSA before used for ELISA.
(§2) ELISA was carried out as follows. 100 μL of each humanized antibody solution prepared at 5 nM in 1% BSA/1% FBS/PBS was added to each well, and reacted at 37° C. for about 1 hour. Anti-human IgG antibody HRP conjugate solution prepared at each concentration in 1% BSA/1% FBS/PBS was added to each well at 100 μL, reacted at 37° C. for about 1 hour, and washed three times with washing solution. The reaction was initiated by adding 100 μL of substrate (TMB) to each well. After about 30 minutes, 100 μL of 1M sulfuric acid was added to each well, the absorbances at 450 and 650 nm were measured, and the difference between the absorbances at 450 nm and at 650 nm was calculated. The calculated difference was compared with the difference between the absorbances at 450 nm and at 650 nm for HEK293T cells without IGF-1 receptor gene (Mock) to analyze the binding activity.

[10] = target: rat IGF-1 receptor expressed on HEK293T cells (rat, UniProt P24062 31-1370); experiment: as above
Method: as §1, §2

[11] = target: T1, IGF-1 receptor on the cells of the …; experiment: cell-based or functional assay; remark: listed apart in the source
[12] = target: T3, guinea pig IGF-1 receptor expressed on …; experiment: cell-based ELISA on fixed HEK293T cells expressing the IGF-1R, antibody at 5 nM, anti-human IgG HRP, absorbance 450 nm minus 650 nm
Method: as §1
as §2, with “The reaction was initiated by adding 100 μL of substrate (TMB) to each well.” left out

[13] = target: T4, rabbit IGF-1 receptor expressed on …; experiment: as above
Method: as §1
as §2, with “The reaction was initiated by adding 100 μL of substrate (TMB) to each well.” left out

T1 sequence (P08069 31-1367): as the sequence (P08069 31-1367 limits assumed) above

B1: FW1_var1 antibody (antibody, V domains shown)
VH: QVQLVQSGAEVKKPGASVKVSCKASGYTFTSYWMHWVRQAPGQGLEWMGETNPSNSVTNYAQKFQGRVTLTVDTSTSTAYMELSSLRSEDTAVYYCTIGRGRGFAYWGQGTLVTVSS
VL: DIQMTQSPSSVSASVGDRVTITCRASQNINFWLSWCQQKPGKIPKLLIYKASNLHTGVPSRFSGSGSGTDFTLTISSLQPEDFATYYCLQGQSYPYTFGGGTKLEIK
- Signal intensity ratio (compared to IGF11-16) at 16.7 nM, PathHunter [1]: 0.66 ratio to IGF11-16
- Activation intensity (RLU), PathHunter [2]: 1600 RLU
- Fluorescence intensity (0.1 nM) (RLU), PathHunter [2]: 555 RLU
- Fluorescence intensity (12.5 nM) (RLU), PathHunter [2]: 2160 RLU
- Ratio of activation intensity, PathHunter [2]: 0.74 relative to IGF11-16
- Activation intensity (RLU), PathHunter [3]: 2270 RLU
- Fluorescence intensity (0.1 nM) (RLU), PathHunter [3]: 209 RLU
- Fluorescence intensity (12.5 nM) (RLU), PathHunter [3]: 2480 RLU
- Ratio of activation intensity, PathHunter [3]: 0.64 relative to IGF11-16

B2: FW1-var9-mFR-H2 (antibody, V domains shown)
VH: B1 VH with R38K, A40R, M48I
VL: B1 VL with C36Y, I43A
- Signal intensity (ratio to IGF11-16) at 16.7 nM, PathHunter [4]: 0.51 ratio to human chimeric IGF11-16

B3: FW1_var9-hH3a (antibody, V domains shown)
VH: B1 VH with S7P
VL: B1 VL with C36Y, I43A
- Signal intensity ratio (compared to IGF11-16) at 16.7 nM, PathHunter [1]: 0.6 ratio to IGF11-16

B4: FW1_var9-hH4a (antibody, V domains shown)
VH: B1 VH with V11L
VL: B1 VL with C36Y, I43A
- Signal intensity ratio (compared to IGF11-16) at 16.7 nM, PathHunter [1]: 0.65 ratio to IGF11-16

B6: FW1-var9-mFR-L1 (antibody, V domains shown)
VH: B1 VH
VL: B1 VL with T5N, V11L, V15L, R18T, V19I, C36Y, I43A
- Signal intensity (ratio to IGF11-16) at 16.7 nM, PathHunter [4]: 0.51 ratio to human chimeric IGF11-16

B7: FW1-var9-mFR-L2 + L3 (antibody, V domains shown)
VH: B1 VH
VL: B1 VL with C36Y, K42N, F83I
- Signal intensity (ratio to IGF11-16) at 16.7 nM, PathHunter [4]: 0.5 ratio to human chimeric IGF11-16

B8: FW1-var9-mFR-H3 (antibody, V domains shown)
VH: B1 VH with T74K, T76S, E82Q, R87T, T91S, S117A
VL: B1 VL with C36Y, I43A
- Signal intensity (ratio to IGF11-16) at 16.7 nM, PathHunter [4]: 0.7 ratio to human chimeric IGF11-16

B10: FW1_var9-hH5a (antibody, V domains shown)
VH: B1 VH with K12V
VL: B1 VL with C36Y, I43A
- Signal intensity ratio (compared to IGF11-16) at 16.7 nM, PathHunter [1]: 0.56 ratio to IGF11-16

B11: humanized antibody hIGF13_PS (antibody, V domains shown)
VH: B1 VH with S25P, N55S, V93T
VL: B1 VL with V11L, C36Y, I43V, F83V
notes: also called VL23/VH13_PS
- binding activity, fold compared to Mock cells [5]: ~2 fold
- binding activity, fold compared to Mock cells [6]: ~2 fold
- binding activity, fold compared to Mock cells [7]: ~2 fold
- binding activity, fold compared to Mock cells [8]: ~2 fold
- binding result [9]: no binding (tested: 5 nM)
- binding result [10]: no binding (tested: 5 nM)

B12: FW1-var9-mFR-H1 (antibody, V domains shown)
VH: B1 VH with V2I, V5Q, S7P, V11L, K12V, V20L, S25P
VL: B1 VL with C36Y, I43A
- Signal intensity (ratio to IGF11-16) at 16.7 nM, PathHunter [4]: 1.08 ratio to human chimeric IGF11-16

The next lines start with the values.

- Signal intensity ratio (compared to IGF11-16) at 16.7 nM, PathHunter [1]: 1.09 ratio to IGF11-16
B5: FW1_var9-hH7a (antibody, V domains shown)
VH: B1 VH with S25P
VL: B1 VL with C36Y, I43A

- Signal intensity ratio (compared to IGF11-16) at 16.7 nM, PathHunter [1]: 0.55 ratio to IGF11-16
B9: FW1_var9-hH6a (antibody, V domains shown)
VH: B1 VH with V20L
VL: B1 VL with C36Y, I43A

- binding activity, fold compared to Mock cells [5]: ~2 fold
- binding activity, fold compared to Mock cells [6]: ~2 fold
- binding activity, fold compared to Mock cells [7]: ~2 fold
- binding activity, fold compared to Mock cells [8]: ~2 fold
- binding result [9]: no binding (tested: 5 nM)
- binding result [10]: no binding (tested: 5 nM)
B13: humanized antibody hIGF25_PS (antibody, V domains shown)
VH: B1 VH with S25P, N55S
VL: B1 VL with V11L, C36Y, I43V, F83V
notes: also called VL23/VH25_PS

- Signal intensity ratio (compared to IGF11-16) at 16.7 nM, PathHunter [1]: 1 ratio to IGF11-16
- Activation intensity (RLU), PathHunter [2]: 2180 RLU
- Fluorescence intensity (0.1 nM) (RLU), PathHunter [2]: 557 RLU
- Fluorescence intensity (12.5 nM) (RLU), PathHunter [2]: 2730 RLU
- Ratio of activation intensity, PathHunter [2]: 1 relative to IGF11-16
- Activation intensity (RLU), PathHunter [3]: 3570 RLU
- Fluorescence intensity (0.1 nM) (RLU), PathHunter [3]: 230 RLU
- Fluorescence intensity (12.5 nM) (RLU), PathHunter [3]: 3800 RLU
- Ratio of activation intensity, PathHunter [3]: 1 relative to IGF11-16
B14: mouse parent antibody IGF11-16 (antibody, mouse IgG1, kappa, V domains shown)
VH: QIQLQQPGAELVKPGASVKLSCKAPGYTFTSYWMHWVKQRPGQGLEWIGETNPSNSVTNYNEKFKSKATLTVDKSSSTAYMQLSSLTSEDSAVYYCTIGRGRGFAYWGQGTLVTVSA
VL: DIQMNQSPSSLSASLGDTITITCRASQNINFWLSWCQQKPGNIPKLLIYKASNLHTGVPSRFSGSGSGTDFTLTISSLQPEDIATYYCLQGQSYPYTFGGGTKLEIKR

- Signal activation EC50 vs IGF11-16, PathHunter [11]: 9.5 ratio vs IGF11-16
- Signal activation Emax vs IGF11-16, PathHunter [11]: 1.5 ratio vs IGF11-16
B15: IGF11-16 with alanine substitution of W at position 32 (CDR-L1) (antibody, V domains shown)
VH: B14 VH
VL: B1 VL with T5N, V11L, V15L, R18T, V19I, W32A, K42N, F83I

- binding result [12]: binds
- binding result [13]: binds
- Signal intensity (ratio to IGF11-16) at 16.7 nM, PathHunter [4]: 1 ratio to human chimeric IGF11-16
B16: human chimeric IGF11-16 antibody (antibody, V domains shown)
VH: B14 VH
VL: B1 VL with T5N, V11L, V15L, R18T, V19I, K42N, F83I
notes: also called Chimera; human mouse chimeric antibody IGF11-16
